B1: BBSome complex member BBS2 (Homo sapiens), Q9BXC9 (parent)
chain: MLLPVFTLKLRHKISPRMVAIGRYDGTHPCLAAATQTGKVFIHNPHTRNQHVSASRVFQSPLESDVSLLSINQAVSCLTAGVLNPELGYDALLVGTQTNLLAYDVYNNSDLFYREVADGANAIVLGTLGDISSPLAIIGGNCALQGFNHEGSDLFWTVTGDNVNSLALCDFDGDGKKELLVGSEDFDIRVFKEDEIVAEMTETEIVTSLCPMYGSRFGYALSNGTVGVYDKTSRYWRIKSKNHAMSIHAFDLNSDGVNELITGWSNGKVDARSDRTGEVIFKDNFSSAIAGVVEGDYRMDGHIQLICCSVDGEIRGYLPGTAEMRGNLMDTSAEQDLIRELSQKKQNLLLELRNYEENAKAELASPLNEADGHRGIIPANTRLHTTLSVSLGNETQTAHTELRISTSNDTIIRAVLIFAEGIFTGESHVVHPSIHNLSSSICIPIVPPKDVPVDLHLKAFVGYRSSTQFHVFESTRQLPRFSMYALTSLDPASEPISYVNFTIAERAQRVVVWLGQNFLLPEDTHIQNAPFQVCFTSLRNGGHLHIKIKLSGEITINTDDIDLAGDIIQSMASFFAIEDLQVEADFPVYFEELRKVLVKVDEYHSVHQKLSADMADHSNLIRSLLVGAEDARLMRDMKTMKSRYMELYDLNRDLLNGYKIRCNNHTELLGNLKAVNQAIQRAGRLRVGKPKNQVITACRDAIRSNNINTLFKIMRVGTASS
partner: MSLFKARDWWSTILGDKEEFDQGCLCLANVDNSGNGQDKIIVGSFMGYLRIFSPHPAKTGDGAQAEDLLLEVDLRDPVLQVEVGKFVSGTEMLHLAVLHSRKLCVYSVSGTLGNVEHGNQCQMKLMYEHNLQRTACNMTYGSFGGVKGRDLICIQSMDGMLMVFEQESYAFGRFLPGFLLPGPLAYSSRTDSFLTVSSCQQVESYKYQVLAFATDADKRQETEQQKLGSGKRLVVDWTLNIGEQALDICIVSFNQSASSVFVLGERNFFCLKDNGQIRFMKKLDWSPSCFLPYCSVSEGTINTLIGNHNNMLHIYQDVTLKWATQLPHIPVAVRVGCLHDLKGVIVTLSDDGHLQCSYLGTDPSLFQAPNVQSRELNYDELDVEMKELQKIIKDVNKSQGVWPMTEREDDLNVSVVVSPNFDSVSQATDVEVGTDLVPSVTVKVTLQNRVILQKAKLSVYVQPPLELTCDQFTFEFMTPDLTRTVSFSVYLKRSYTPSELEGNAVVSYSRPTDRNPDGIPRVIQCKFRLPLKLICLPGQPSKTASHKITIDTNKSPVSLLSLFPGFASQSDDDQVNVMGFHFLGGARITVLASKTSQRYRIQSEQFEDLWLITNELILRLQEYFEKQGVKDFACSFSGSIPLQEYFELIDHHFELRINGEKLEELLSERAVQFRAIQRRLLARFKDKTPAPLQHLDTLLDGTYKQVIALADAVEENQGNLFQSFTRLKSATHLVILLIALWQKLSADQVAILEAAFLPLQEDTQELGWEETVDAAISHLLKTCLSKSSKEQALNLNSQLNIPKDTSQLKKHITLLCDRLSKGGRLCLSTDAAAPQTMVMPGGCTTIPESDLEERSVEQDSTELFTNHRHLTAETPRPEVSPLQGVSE

Variants of: B1
Details: with pthb1_human BBS9, Q3SYG4

Variant | effect of a mutation on the interaction
G627K | with no effect
A628E | with no effect
A628K | with no effect
E629A | with no effect
E629K | with no effect
D630A | with no effect
D630E | with no effect
D630K | with no effect
A631E | with no effect
A631K | with no effect
R632A | with no effect
R632E | with no effect
R632K | with no effect
L633A | with no effect
L633E | with no effect
L633K | with no effect
M634A | with no effect
M634E | with no effect
M634K | with no effect
R635A | with no effect
R635E | with no effect
R635K | with no effect
D636A | with no effect
D636E | with no effect

Variant | effect of a mutation on the interaction
D636G | disrupting interaction strength
D636K | with no effect
M637A | with no effect
M637E | with no effect
M637K | with no effect
K638A | with no effect
K638E | with no effect
T639A | with no effect
T639E | with no effect
T639K | with no effect
M640A | with no effect
M640E | with no effect
M640K | with no effect
K641A | with no effect
K641E | with no effect
S642A | with no effect
S642E | with no effect
S642K | with no effect
R643A | with no effect
R643E | with no effect
R643K | with no effect
Y644A | with no effect
Y644E | with no effect
Y644K | with no effect

Variant | effect of a mutation on the interaction
M645A | with no effect
M645E | with no effect
M645K | with no effect
E646A | with no effect
E646K | with no effect
L647A | with no effect
L647E | with no effect
L647K | with no effect
Y648A | with no effect
Y648E | with no effect
Y648K | with no effect
D649A | with no effect
D649E | with no effect
D649K | with no effect
L650A | with no effect
L650E | with no effect
L650K | with no effect
N651A | with no effect
N651E | with no effect
N651K | with no effect
R652A | with no effect
R652E | with no effect
R652K | with no effect
D653A | with no effect

Variant | effect of a mutation on the interaction
D653E | with no effect
D653K | with no effect
L654A | with no effect
L654E | with no effect
L654K | with no effect
L655A | with no effect
L655E | with no effect
L655K | with no effect
N656A | with no effect
N656E | with no effect
N656K | with no effect
G657A | with no effect
G657E | with no effect
G657K | with no effect
Y658A | with no effect
Y658E | with no effect
Y658K | with no effect
K659A | with no effect
K659E | with no effect
I660A | with no effect
I660E | with no effect
I660K | with no effect
R661A | with no effect
R661E | with no effect

Variant | effect of a mutation on the interaction
R661K | with no effect
C662A | with no effect
C662E | with no effect
C662K | with no effect
N663A | with no effect
N663E | with no effect
N663K | with no effect
N664A | with no effect
N664E | with no effect
N664K | with no effect
H665A | with no effect
H665E | with no effect
H665K | with no effect
T666A | with no effect
T666E | with no effect
T666K | with no effect
E667A | with no effect
E667K | with no effect
L668A | with no effect
L668E | with no effect
L668K | with no effect
L669A | with no effect
L669E | with no effect
L669K | with no effect

Variant | effect of a mutation on the interaction
G670A | with no effect
G670E | with no effect
G670K | with no effect
N671A | with no effect
N671E | with no effect
N671K | with no effect
L672A | with no effect
L672E | with no effect
L672K | with no effect
K673A | with no effect
K673E | with no effect
A674E | with no effect
A674K | with no effect
V675A | with no effect
V675E | with no effect
V675K | with no effect
N676A | with no effect
N676E | with no effect
N676K | with no effect
Q677A | with no effect
Q677E | with no effect
Q677K | with no effect
Q677L | disrupting interaction strength
A678E | with no effect

Variant | effect of a mutation on the interaction
A678K | with no effect
I679A | with no effect
I679E | with no effect
I679K | with no effect
Q680A | with no effect
Q680E | with no effect
Q680K | with no effect
R681A | with no effect
R681E | with no effect
R681K | with no effect
A682E | with no effect
A682K | with no effect
G683A | with no effect
G683E | with no effect
G683K | with no effect
R684A | with no effect
R684E | with no effect
R684K | with no effect
L685A | with no effect
L685E | with no effect
L685K | with no effect
R686A | with no effect
R686E | with no effect
R686K | with no effect

Variant | effect of a mutation on the interaction
V687A | with no effect
V687E | with no effect
V687K | with no effect
G688A | with no effect
G688E | with no effect
K689A | with no effect
K689E | with no effect
P690A | with no effect
P690E | with no effect
P690K | with no effect
K691A | with no effect
K691E | with no effect
N692A | with no effect
N692E | with no effect
N692K | with no effect
Q693A | with no effect
Q693E | with no effect
Q693K | with no effect
V694A | with no effect
